These results are taken from patent publication US20210355194A1 (TWIST BIOSCIENCE, published 2021).

B1: 10-47 (VHH)
VHH: EVQLVESGGGLVQPGGSLRLSCAASGRPLRRYVMGWFRQAPGKEREFVAAITNGGSTKYADSVKGRFTISADNSKNTAYLQMNSLKPEDTAVYYCARGTPWRLLWFGTLGPPPAFDYWGQGTLVTVSS
B2: 10-17 (VHH)
VHH: EVQLVESGGGLVQPGGSLRLSCAASGRTFSIYAMGWFRQAPGKEREFVARITRGGITKYADSVKGRFTISADNSKNTAYLQMNSLKPEDTAVYYCARGLGWLLGYYWGQGTLVTVSS
B3: 10-28 (VHH)
VHH: EVQLVESGGGLVQPGGSLRLSCAASGSIFSIGMGWFRQAPGKEREFVARIWWRSGATYYADSVKGRFTISADNSKNTAYLQMNSLKPEDTAVYYCAAISIFGRLKWGQGTLVTVSS
B4: 10-5 (VHH)
VHH: EVQLVESGGGLVQPGGSLRLSCAASGRSLGIYRMGWFRQAPGKEREFVAAITSGGRKNYADSVKGRFTISADNSKNTAYLQMNSLKPEDTAVYYCAKRTIFGVGRWLDPWGQGTLVTVSS
B5: 10-11 (VHH)
VHH: EVQLVESGGGLVQPGGSLRLSCAASGRNFRRNSMGWFRQAPGKEREFVAGISWSGARTHYADSVKGRFTISADNSKNTAYLQMNSLKPEDTAVYYCARVSRRPRSPPGYYYGMDVWGQGTLVTVSS
B6: 10-31 (VHH)
VHH: EVQLVESGGGLVQPGGSLRLSCAASGRTFGSYGMGWFRQAPGKEREFVATISIGGRTYYADSVKGRFTISADNSKNTAYLQMNSLKPEDTAVYYCARGSGSGFMWYHGNNNYDRWRYWGQGTLVTVSS
B7: 10-57 (VHH)
VHH: EVQLVESGGGLVQPGGSLRLSCAASGRTFSRYAMGWFRQAPGKEREFVASITKFGSTNYADSVKGRFTISADNSKNTAYLQMNSLKPEDTAVYYCAKERESRFLKWRKTDWGQGTLVTVSS
B8: 10-18 (VHH)
VHH: EVQLVESGGGLVQPGGSLRLSCAASGRMYNSYSMGWFRQAPGKEREFVARISPGGTFYADSVKGRFTISADNSKNTAYLQMNSLKPEDTAVYYCTTSARSGWFWRYFDSWGQGTLVTVSS
B9: 9-8 (VHH)
VHH: EVQLVESGGGLVQPGGSLRLSCAASGRTFRRYPMGWFRQAPGKEREFVAAISRSGGSTYYADSVKGRFTISADNSKNTAYLQMNSLKPEDTAVYYCAAKRLRSFASGGSYDWGQGTLVTVSS
B10: 10-48 (VHH)
VHH: EVQLVESGGGLVQPGGSLRLSCAASGRTFRRYAMGWFRQAPGKEREFVAAINRSGSTEYADSVKGRFTISADNSKNTAYLQMNSLKPEDTAVYYCARQHQDFWTGYYTVWGQGTLVTVSS
B11: 10-42 (VHH)
VHH: EVQLVESGGGLVQPGGSLRLSCAASGITIRTHAMGWFRQAPGKEREFVATISRSGGNTYYADSVKGRFTISADNSKNTAYLQMNSLKPEDTAVYYCTTAGVLRYFDWFRRPYWGQGTLVTVSS
B12: 10-52 (VHH)
VHH: EVQLVESGGGLVQPGGSLRLSCAASGRFFSICSMGWFRQAPGKEREFVAGINWRSGGSTYYADSVKGRFTISADNSKNTAYLQMNSLKPEDTAVYYCARGSGWWEYWGQGTLVTVSS
B13: 10-9 (VHH)
VHH: EVQLVESGGGLVQPGGSLRLSCAASGIPFRSRTMGWFRQAPGKEREFVAGITGSGRSQYYADSVKGRFTISADNSKNTAYLQMNSLKPEDTAVYYCARGARIFGSVAPWRGGNYYGMDVWGQGTLVTVSS
B14: 10-50 (VHH)
VHH: EVQLVESGGGLVQPGGSLRLSCAASGRTLSTYNMGWFRQAPGKEREFVASISRFGRTNYADSVKGRFTISADNSKNTAYLQMNSLKPEDTAVYYCARRGKLSAAMHWFDPWGQGTLVTVSS
B15: 10-45 (VHH)
VHH: EVQLVESGGGLVQPGGSLRLSCAASGRTFSWYPMGWFRQAPGKEREFVASISWGGARTYYADSVKGRFTISADNSKNTAYLQMNSLKPEDTAVYYCARSTGPRGSGRYRAHWFDSWGQGTLVTVSS
B16: 9-1 (VHH)
VHH: EVQLVESGGGLVQPGGSLRLSCAASGRTFSRLAMGWFRQAPGKEREFVAAISRSGRSTSYADSVKGRFTISADNSKNTAYLQMNSLKPEDTAVYYCAARRSQILFTSRTDYEWGQGTLVTVSS
B17: 10-40 (VHH)
VHH: EVQLVESGGGLVQPGGSLRLSCAASGRTFSTYTMGWFRQAPGKEREFVARIWRSGGNTYYADSVKGRFTISADNSKNTAYLQMNSLKPEDTAVYYCARGVRGVFRAYFDHWGQGTLVTVSS
B18: 10-41 (VHH)
VHH: EVQLVESGGGLVQPGGSLRLSCAASGRNLRMYRMGWFRQAPGKEREFVALISRVGVTSYADSVKGRFTISADNSKNTAYLQMNSLKPEDTAVYYCARGTSFFNFWSGSLGRVGFDSWGQGTLVTVSS
B19: 10-22 (VHH)
VHH: EVQLVESGGGLVQPGGSLRLSCAASGRTYYAMGWFRQAPGKEREFVGAIDWSGRRITYADSVKGRFTISADNSKNTAYLQMNSLKPEDTAVYYCARVRFSRLGGVIGRPIDSWGQGTLVTVSS
B20: 9-3 (VHH)
VHH: EVQLVESGGGLVQPGGSLRLSCAASGRTFSRYAMGWFRQAPGKEREFVAAISRSGKSTYYADSVKGRFTISADNSKNTAYLQMNSLKPEDTAVYYCAASSVFSDLRYRKNPKWGQGTLVTVSS
B21: 10-26 (VHH)
VHH: EVQLVESGGGLVQPGGSLRLSCAASGRTFSGFTMSSTWMGWFRQAPGKEREFVAGIITNGSTNYADSVKGRFTISADNSKNTAYLQMNSLKPEDTAVYYCARRVAYSSFWSGLRKHMDVWGQGTLVTVSS
B22: 10-30 (VHH)
VHH: EVQLVESGGGLVQPGGSLRLSCAASGRTFSSFRFRAMGWFRQAPGKEREFVALIFSGGSTYYADSVKGRFTISADNSKNTAYLQMNSLKPEDTAVYYCAREWGRWLQRGSYWGQGTLVTVSS
B23: 10-54 (VHH)
VHH: EVQLVESGGGLVQPGGSLRLSCAASGRTFSSARMGWFRQAPGKEREFVAGINMISSTKYADSVKGRFTISADNSKNTAYLQMNSLKPEDTAVYYCAHFRRFLPRGYVDYWGQGTLVTVSS

The target of this assay is SARS-CoV-2 membrane protein on expressing cells (SARS-CoV-2, UniProt P0DTC5 1-222).
Take B1: the “MFI Ratio” value is 1.62.

Regarding B2, the “MFI Ratio” value was determined as 1.59.

With B3, the “MFI Ratio” value is 2.06.

B4: the “MFI Ratio” value came to 1.59.

B5: the “MFI Ratio” value is 1.56.

With B6, the “MFI Ratio” value amounted to 1.66.

As for B7, the “MFI Ratio” value was 1.79.

On to B8, for which the “MFI Ratio” value amounted to 8.06.

As for B9, the “MFI Ratio” value is 3.76.

Turning to B10, the “MFI Ratio” value is 4.11.

B11: the “MFI Ratio” value came to 1.74.

B12: the “MFI Ratio” value stood at 4.11.

As for B13, the “MFI Ratio” value came out at 1.61.

As for B14, the “MFI Ratio” value was determined as 1.72.

In the case of B15, the “MFI Ratio” value is 6.69.

For the molecule B16, the “MFI Ratio” value came to 8.19.

As to B17, the “MFI Ratio” value stood at 3.78.

For B18, the “MFI Ratio” value is 1.75.

Consider B19, for which the “MFI Ratio” value was determined as 4.47.

Turning to B20, the “MFI Ratio” value amounted to 1.61.

Regarding B21, the “MFI Ratio” value worked out at 5.2.

Turning to B22, the “MFI Ratio” value is 1.57.

In the case of B23, the “MFI Ratio” value was determined as 1.78.
